Target: Human histone H3.5 (human) (UniProt Q6NXT2)
Assay: native gel or EMSA; nucleosomes reconstituted with 146 base-pair human alpha-satellite DNA by salt dialysis from 2 M KCl, heated at 55 °C for 2 h, purified by preparative non-denaturing PAGE; analysed by non-denaturing 6 % PAGE and 18 % SDS-PAGE (histone composition)

stoichiometry N	Substance
1	Human histone H2A (from UniProt P04908 1-130) (natural protein)
1	Human histone H2B (from UniProt P06899 1-126) (natural protein)
1	Human histone H4 (from UniProt P62805 1-103) (natural protein)
